For five molecules, Ratio, Km and kcat/Km results are on record in ChEMBL document CHEMBL1221251, “Factorizing the role of a critical leucine residue in the binding of substrate to human 20alpha-hydroxysteroid dehydrogenase (AKR1C1): molecular modeling and kinetic studies of the Leu308Val mutant enzyme” (Bioorg Med Chem Lett, 2010).

The test system of series [1] is Aldo-keto reductase family 1 member C1 (Homo sapiens), Q04828 [UNDEFINED MUTATION]. The experiment in a line: Ratio of Kcat/Km for human recombinant AKR1C1 Leu308Val mutant to Kcat/Km for human recombinant wild type AKR1C1.
For series [2] the test system is unchanged. The series is described as follows: Ratio of Km for human recombinant AKR1C1 Leu308Val mutant to Km for human recombinant wild type AKR1C1.
For series [3] the test system is unchanged. The experiment in a line: Ratio of Kcat/Km for human recombinant AKR1C1 Leu308Ala mutant to Kcat/Km for human recombinant wild type AKR1C1.
The test system is the same in series [4]. The series is described as follows: Ratio of Km for human recombinant AKR1C1 Leu308Ala mutant to Km for human recombinant wild type AKR1C1.
Series [5] deals with T1, Aldo-keto reductase family 1 member C1 (Homo sapiens) (UniProt Q04828). The experiment in a line: Activity at human recombinant wild type AKR1C1 expressed in Escherichia coli JM109 after 15 mins.
Series [6] concerns the target T1, Aldo-keto reductase family 1 member C1 …. The series is described as follows: Ratio of kcat/km for human recombinant wild type AKR1C1 expressed in Escherichia coli JM109 after 15 mins.
Substrate in series [7]: CC(=O)[C@H]1CC[C@H]2[C@@H]3CC[C@@H]4C[C@H](O)CC[C@]4(C)[C@H]3CC[C@]12C
The series is described as follows: (§1) Activity at human recombinant wild type AKR1C1 expressed in Escherichia coli JM109 after 15 mins.

Substrate in series [8]: C[C@@H](O)[C@H]1CC[C@H]2[C@@H]3CC[C@H]4C[C@H](O)CC[C@]4(C)[C@H]3CC[C@]12C
The series is described as §1.

Substrate in series [9]: CC(=O)[C@H]1CC[C@H]2[C@@H]3CC[C@@H]4C[C@H](O)CC[C@]4(C)[C@H]3CC[C@]12C
The experiment in a line: (§2) Ratio of kcat/km for human recombinant wild type AKR1C1 expressed in Escherichia coli JM109 after 15 mins.

Substrate in series [10]: C[C@@H](O)[C@H]1CC[C@H]2[C@@H]3CC[C@H]4C[C@H](O)CC[C@]4(C)[C@H]3CC[C@]12C
Described as §2.

Substrate in series [11]: CC(=O)[C@H]1CC[C@H]2[C@@H]3CC[C@@H]4C[C@H](O)CC[C@]4(C)[C@H]3CC[C@]12C
The experiment in a line: (§3) Ratio of kcat/km for human recombinant AKR1C1 Leu308Val mutant expressed in Escherichia coli JM109 after 15 mins.

Substrate in series [12]: C[C@@H](O)[C@H]1CC[C@H]2[C@@H]3CC[C@H]4C[C@H](O)CC[C@]4(C)[C@H]3CC[C@]12C
Described as §3.

Substrate in series [13]: CC(=O)[C@H]1CC[C@H]2[C@@H]3CC[C@@H]4C[C@H](O)CC[C@]4(C)[C@H]3CC[C@]12C
The experiment in a line: (§4) Activity at human recombinant AKR1C1 Leu308Val mutant expressed in Escherichia coli JM109 after 15 mins.

Substrate in series [14]: C[C@@H](O)[C@H]1CC[C@H]2[C@@H]3CC[C@H]4C[C@H](O)CC[C@]4(C)[C@H]3CC[C@]12C
Described as §4.

On to `CC(=O)[C@H]1CC[C@H]2[C@@H]3CC[C@@H]4C[C@H](O)CC[C@]4(C)[C@H]3CC[C@]12C`, for which the Ratio in series [1] amounted to 0.2; in series [2], 2.
Regarding `O[C@H]1CCCc2ccccc21`, the Ratio in [3] is 0.01; in [1] it was 0.2; in series [4], 67; in series [2], 2.
With `C[C@@H](O)[C@H]1CC[C@H]2[C@@H]3CC[C@H]4C[C@H](O)CC[C@]4(C)[C@H]3CC[C@]12C`, the Ratio in series [1] was 7; in [2], 0.4.

B1: Aldo-keto reductase family 1 member C1 (Homo sapiens), Q04828 (protein)
chain: MDSKYQCVKLNDGHFMPVLGFGTYAPAEVPKSKALEATKLAIEAGFRHIDSAHLYNNEEQVGLAIRSKIADGSVKREDIFYTSKLWCNSHRPELVRPALERSLKNLQLDYVDLYLIHFPVSVKPGEEVIPKDENGKILFDTVDLCATWEAVEKCKDAGLAKSIGVSNFNRRQLEMILNKPGLKYKPVCNQVECHPYFNQRKLLDFCKSKDIVLVAYSALGSHREEPWVDPNSPVLLEDPVLCALAKKHKRTPALIALRYQLQRGVVVLAKSYNEQRIRQNVQVFEFQLTSEEMKAIDGLNRNVRYLTLDIFAGPPNYPFSDEY
Regarding B1, the Km in [5] was found to be 7 µM⁻¹; in [7], 7 µM⁻¹; in series [8] it was 0.9 µM⁻¹. The kcat/Km was 61700 M⁻¹ s⁻¹ in series [6], 61700 M⁻¹ s⁻¹ in series [9] and 40000 M⁻¹ s⁻¹ in [10].

B2: Aldo-keto reductase family 1 member C1 (Homo sapiens), Q04828 L308V (protein)
chain: MDSKYQCVKLNDGHFMPVLGFGTYAPAEVPKSKALEATKLAIEAGFRHIDSAHLYNNEEQVGLAIRSKIADGSVKREDIFYTSKLWCNSHRPELVRPALERSLKNLQLDYVDLYLIHFPVSVKPGEEVIPKDENGKILFDTVDLCATWEAVEKCKDAGLAKSIGVSNFNRRQLEMILNKPGLKYKPVCNQVECHPYFNQRKLLDFCKSKDIVLVAYSALGSHREEPWVDPNSPVLLEDPVLCALAKKHKRTPALIALRYQLQRGVVVLAKSYNEQRIRQNVQVFEFQLTSEEMKAIDGLNRNVRYLTVDIFAGPPNYPFSDEY
B2: the kcat/Km in [11] is 13300 M⁻¹ s⁻¹; in series [12], 267000 M⁻¹ s⁻¹. The Km was 16 µM⁻¹ in series [13] and 0.4 µM⁻¹ in series [14].
